Measured values reported in PMC3273809.
Read-outs that look alike come from different tables or passages of the source.

Experiments:
Assay in all cases: SPR
[1] = biological target: Lon;TrfA P151S/G254D/S267L (Escherichia coli;plasmid RK2, UniProt P0A9M0;P07676 1-784;98-382, |P151S;G254D;S267L)
[2] = biological target: T1, ClpA (Escherichia coli, UniProt P0ABH9 1-758)
T1 sequence: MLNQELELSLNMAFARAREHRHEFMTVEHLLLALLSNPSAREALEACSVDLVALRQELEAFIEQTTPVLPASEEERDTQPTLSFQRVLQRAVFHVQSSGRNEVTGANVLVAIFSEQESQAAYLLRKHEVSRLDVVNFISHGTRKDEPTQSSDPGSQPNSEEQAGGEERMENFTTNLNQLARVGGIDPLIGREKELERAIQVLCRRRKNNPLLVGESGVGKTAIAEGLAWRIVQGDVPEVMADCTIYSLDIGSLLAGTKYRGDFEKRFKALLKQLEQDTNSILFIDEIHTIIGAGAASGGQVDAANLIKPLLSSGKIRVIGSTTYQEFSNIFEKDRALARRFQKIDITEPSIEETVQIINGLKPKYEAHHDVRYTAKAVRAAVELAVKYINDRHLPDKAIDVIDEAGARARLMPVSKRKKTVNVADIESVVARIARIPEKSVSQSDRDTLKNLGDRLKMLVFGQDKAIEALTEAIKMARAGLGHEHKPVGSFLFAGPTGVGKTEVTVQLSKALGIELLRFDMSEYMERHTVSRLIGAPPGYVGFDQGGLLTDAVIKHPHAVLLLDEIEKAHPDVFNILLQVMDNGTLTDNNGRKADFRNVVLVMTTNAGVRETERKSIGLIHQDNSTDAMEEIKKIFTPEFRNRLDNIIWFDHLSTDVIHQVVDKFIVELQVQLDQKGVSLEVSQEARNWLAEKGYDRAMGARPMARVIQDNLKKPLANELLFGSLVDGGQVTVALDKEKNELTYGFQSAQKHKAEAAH

[3] = biological target: T2, Lon (Escherichia coli, UniProt P0A9M0 1-784)
[4] = biological target: T3, TrfA wt (His6-TrfA-33) (plasmid RK2, UniProt P07676 98-382)
T3 sequence: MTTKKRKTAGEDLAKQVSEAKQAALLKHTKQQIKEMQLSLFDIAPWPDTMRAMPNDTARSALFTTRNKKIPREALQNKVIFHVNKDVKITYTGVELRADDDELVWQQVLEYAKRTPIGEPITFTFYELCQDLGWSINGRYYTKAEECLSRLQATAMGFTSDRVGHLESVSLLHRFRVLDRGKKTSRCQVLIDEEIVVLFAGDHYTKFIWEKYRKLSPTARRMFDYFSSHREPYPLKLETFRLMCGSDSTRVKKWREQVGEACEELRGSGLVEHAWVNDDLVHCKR

[5] = biological target: T4, TrfA G254D/S267L (plasmid RK2, UniProt P07676 98-382, G254D;S267L)
T4 sequence: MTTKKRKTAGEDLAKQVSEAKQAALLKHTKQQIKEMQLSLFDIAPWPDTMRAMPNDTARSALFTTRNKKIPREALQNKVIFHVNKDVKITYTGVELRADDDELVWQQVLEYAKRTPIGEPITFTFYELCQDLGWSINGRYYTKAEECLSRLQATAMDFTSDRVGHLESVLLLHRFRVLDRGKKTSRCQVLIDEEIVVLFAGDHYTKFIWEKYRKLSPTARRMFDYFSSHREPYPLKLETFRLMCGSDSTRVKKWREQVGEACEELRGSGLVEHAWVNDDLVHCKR

[6] = biological target: T2, Lon; remark: listed apart in the source

Measured: binding result

B1: frag2 (pUC19 fragment, 129 bp) (dsDNA)
DNA 1: AGCTCACAATTCCACACAACATACGAGCCGGAAGCATAAAGTGTAAAGCCTGGGGTGCCTAATGAGTGAGCTAACTCACATTAATTGCGTTGCGCTCACTGCCCGCTTTCCAGTCGGGAAACCTGTCGT
DNA 2: ACGACAGGTTTCCCGACTGGAAAGCGGGCAGTGAGCGCAACGCAATTAATGTGAGTTAGCTCACTCATTAGGCACCCCAGGCTTTACACTTTATGCTTCCGGCTCGTATGTTGTGTGGAATTGTGAGCT
binds: [1] | [2] | [3]

B2: frag1 (five RK2 oriV iterons, 129 bp) (dsDNA)
DNA 1: CCTGCGGTATTGACACTTGAGGGGCGCGACTACTGACAGATGAGGGGCGCGATCCTTGACACTTGAGGGGCAGAGTGATGACAGATGAGGGGCGCACCTATTGACATTTGAGGGGCTGTCCACAGGCAG
DNA 2: CTGCCTGTGGACAGCCCCTCAAATGTCAATAGGTGCGCCCCTCATCTGTCATCACTCTGCCCCTCAAGTGTCAAGGATCGCGCCCCTCATCTGTCAGTAGTCGCGCCCCTCAAGTGTCAATACCGCAGG
binds: [4] | [5] | [6] | [2]
